Reference: the domain aggregation screens of Martell et al. (2025)

experiment: soluble fraction after stress (log2 fold change); higher = more stays soluble; pooled small domains, quantitative proteomics; conditions: stress: 50 degC
Summary of the method: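 Each library was heated to 50°C as a stress step. The libraries, made up of small protein domains, were pooled and analysed at high throughput by quantitative proteomics. The reported value is the base-two logarithm of the fold change in each protein's soluble amount after stress, taken as a measure of aggregation propensity. The higher the value, the more protein stays in solution.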

“HMQQPIPGEAYLTRRPGSDHFQIAFTIDGHRVRESSGTSDKVAAAALAQKRYEEVWREIKLGEK” and “HMVQQAVNMAKPGKLFTGPSPTSKALRDLDAGAMLYPTGEKQGPFWKVQDELGNEGWVAMGLLQLA” are within 0.2 log units of each other in “soluble fraction (log2)” value: 0.2 for the first, 0.175 for the second.

Going from “HMLPVDALFAQHPALIVTLGQTEKLKHGAAIRDWHFADGTYRVYSETGEFLLLGTVKGQILTTVKSFFE” to “HMSFGYFQLRAKDPQKLKSVLEKIPQIQSIKEEKGDLIGYLNADMEAEELSQKLAAAKIFVTHMAKKK”, the “soluble fraction (log2)” value rises from -2.08 to -0.0166.

Compared with “HMPPFTYHLERAKRKTVGFIVDERGVTVRAPRWVSVSEIEKMLQTKEAWIQKKLTEFHNWQKE”, “HMRNPLYAQVADYVMQQIAAGTYRPHQAIPTEWQLAKKLEVSQGTVRKGLDELVFKQILYRQQGVGTFVAD” is higher in “soluble fraction (log2)” value: -3.11 for the first, -1.19 for the second.

Compared with “HMEKRRQEIVELVKRESEISFAELKQHFPEVSEVTLRKDLKYLDSTLQIIRIHGGAKSLPAAI”, “HMSSVTGMERFLSSGAVKGIGKTMAARIVEHFGTETMTVLESFPERLAEVPGIGAKKAEAIGQSYSEISD” is higher in “soluble fraction (log2)” value: -0.362 for the first, 0.174 for the second.

First: HMESRTQVYDFYKDLFREKRRPLRAEEMLSALKSQRGIVGVNQYQIIEQHGIVRLSGSGRSALYWDTDLGS
Second: HMEKVTAPMPGVINSIVKNVGDTVKRGDVVLILEAMKMENEIVAPKEGKIASINVAKGASVNAGDVLFSI
The “soluble fraction (log2)” value of the first is lower: -2.74 for the first, 0.294 for the second.

“HMTPDDSYIAGYAAGILKHQFLIDAPELIVRNGTITIPADKVSAGDRAKVVQILSGIPGVTRVEVG” and “HMIPSGISEHPISKLPLSMSIIHRLELAGIKTIGDITGENFSRLQEIPRIGKVTAKRILEAIQSYSEQLP” are within 0.2 log units of each other in “soluble fraction (log2)” value: -0.0502 for the first, -0.15 for the second.

Compared with “HMASRKTERINRLIDVLQHATSRVPASVLSKILGIGERSVRNYVSEVNEQGQFRIDSSSGGYRLVA”, “HMETFNMTQKEITRLRVINQAIDKVITIREAAELLGLSERQVIRLKGGVEKFGPAFIIHKNRGRKP” is lower in “soluble fraction (log2)” value: -0.147 for the first, -0.71 for the second.

Compared with “HMDVPVEVFMERIVTALREGRKTTFSELMEGKPERGKVIGTFLALLQLSKGQQIQIHQEQRTGEISIEGGA”, “HMNNYNDSVQKIINYIADNLNENLSVRKLADKMPMSVSHFNRVFQKYTGDSPYAYVMAMRIKKAKYL” is higher in “soluble fraction (log2)” value: -0.315 for the first, 0.0162 for the second.

“HMSDKTSLTDDDKALINSMLPDYDKYPSVAKLQAVEIAKSSSKMATLLMLDERYNETVSEALE” and “HMTPQGALDYSRNAKYLRDQVTAINYLKQARLSLNTTDANYRQTLEQINQAIAKHNQALQQAGVQSQQLAT” are within 0.2 log units of each other in “soluble fraction (log2)” value: 0.0209 for the first, 0.0556 for the second.

Compared with “HMSFSTHHEYYIYNLAVDMRKGYDGLSGLVVNELGRQPWDGSVYVFFNTMRDKVKLLVWDTDGYVIYSKR”, “HMNNKSDLLFNHLRQRIATMENGTIFPSVRQLMTEYNVSQSTVSTAIRSLKELGLLEALSRQGMVVRKE” is lower in “soluble fraction (log2)” value: 0.279 for the first, -0.476 for the second.

Going from “HMGIDRPLFTLAQFARQIGEQVKISLSLPQDGRRRLQGKVLSVGESGIVLDVDGREFTVAIGNVDKARL” to “HMATIGVGSKVTLTTYVDWVGNGLLKTRDFYFVSELNGKRAVLRADSMNGAIYAAVNIDNLRI”, the “soluble fraction (log2)” value falls from -1.24 to -2.56.

Going from “HMSAERFDFRIGPELAGKRFDQALAEALPQFSRSRLSTWIKDGRATLNGATMRPKDSVHAGDTVVVNAE” to “HMQITQSSEPIDVSALRLGMFIHLEGGWLSHPFPRSSFKITSEDQLVTLRSLGISVLRWSPELSDPE”, the “soluble fraction (log2)” value falls from 0.126 to -0.834.

“HMKMSVEEVNLSPRTTNALINNDIKTMKDLVALTDTELRDLKGFGSKAYEEVKEKLSELGLSTQ” and “HMAQTEIPYSEFLREVGNGQIKSVIIEGSEITGFYKTSGTSFNVVAPDDPKLVERLMDQGVEVRAQPT” are within 0.2 log units of each other in “soluble fraction (log2)” value: 0.227 for the first, 0.0919 for the second.

First: HMGVPTEQQSLIGKSGIAATDLRPSGKVEIDGKRYDAVSNYAGFIAKGTPISVVRYETGQIYVE
Second: HMKVMTNAELGRIIKEARIARRMTQSEVVGDFITRNMLSQIENGNAAPSMRTLQYLMDVLDIHINIE
The “soluble fraction (log2)” value of the first is higher: 0.0415 for the first, -2.58 for the second.

“HMNTISEADAKRIALERAGLTAADYVKVDYDQDDNEYEVEMRSGNTEYEVKISGSTGAVLEYDSETD” and “HMRGINDLSLVDPQGRIRKDGEQYVVAFGRHKGKEISQIISQDPSYLNWLLSPKGIEDDATRELIRTQYS” are within 0.2 log units of each other in “soluble fraction (log2)” value: 0.149 for the first, -0.0415 for the second.

“HMTMSFSELLRGLRKSRGMSQAELATAVGLSQAQVSQIETGKLLPSPELIEKLAALYGIALGSA” and “HMRGPTIELLIQKSALYEELDDSENALKEILKAFDRDSLNSDVLNRLVNLLLNDKQIDRAENYNQLLIEK” are within 0.2 log units of each other in “soluble fraction (log2)” value: -0.139 for the first, -0.32 for the second.

First: HMSLNIIEITAKKEINELKSFNIIYFNFDKNNSIYEYKISEREKKEILEIEKIIKNSDNVTNYEIRYSF
Second: HMSLSEGVSADVVADVQARLMELGYMDEDDPDGNFSESTRIAVEHFQQQAGLPVTGTVDKATLDALNSPD
The “soluble fraction (log2)” value of the first is lower: -0.52 for the first, 0.0669 for the second.

First: HMELSPVDLGERLKIARETANFTQDAAAKAVGIARTTLVSIEKGQRTARLDEIQALSRFYGVSANALLR
Second: HMGEESIAELISNPKLSDAKRTVILDLLSRGLTVDQIKPYIQSDDPYTAEQLQFELYKLFFTQI
The “soluble fraction (log2)” value of the first is lower: -0.499 for the first, -0.228 for the second.

Compared with “HMRRPTYPTVTTEAGMVVEDRSSGFVGDIVRWSFEGVTLRDRQQQLRHFTWKPGGFLINGTPVTLKRPE”, “HMELDFLRLQIITGIHSGRLSNNEILMMYDTYSQKGGNSYVSRIVNDYVDENNIKEEGKRNARK” is higher in “soluble fraction (log2)” value: -0.629 for the first, -0.346 for the second.
